# Test results published in patent publication US20260258115A1 (MAPP BIOPHARMACEUTICAL, published 2026).
# B1: ADI-19482 (antibody, V domains shown)
# VH: QVQLQQWGAGLLKPSETLSLTCGAFHGSFSGYYWSWIRQPPGKGLEWIGEVTHSRSTNYNPSLKSRITISVDTSRNQFSLKLNSVTAADTAVYYCARGSGEWYFDIWGRGTLVTVSS
# VL: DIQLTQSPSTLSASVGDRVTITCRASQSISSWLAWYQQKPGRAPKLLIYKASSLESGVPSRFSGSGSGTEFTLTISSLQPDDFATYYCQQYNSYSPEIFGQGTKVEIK
# notes: full-length IgG
# B2: ADI-19480 (antibody, V domains shown)
# VH: EVQLVESGGGLVKPGGSLRLSCAASGFTFSAYSMNWVRQAPGKGLEWVSSISSTTNYISYADSVKGRFTISRDNAKNSLYLQMNSLRAEDTAVYYCARDPKYYGLGTYYKDDYWGQGTLVTVSS
# VL: NFMLTQPHSVSESPGKTVTISCTRSGGSIASNYVQWYQQRPGSSPTTVIYEDNQRPSGVPDRFSGSIDSSFNSASLTVSGLKTEDEADYYCQSFDNNNRWVFGGGTKLTVL
# notes: full-length IgG
# B3: ADI-14350 (antibody, V domains shown)
# VH: EVQLVESGPGLVKPSETLSLTCTVSGDSVSNNNYYWNWIRQSPGKGLEWIGYIYYSGSTDYNPSLKSRVTISVDTSKNQFSLNLRSVTAADTAIYFCASAPWGMFTILGVVP
# VL: QSVLTQPPSVSGAPGQRVTISCTGSSSNIGAGYDVHWYQQLPGTAPKLLIYGSSNRPSGVPDRFSGSRSGTSASLAITGLQAEDEADYYCQSYDGSLGVYVFATGTKVTVL
# notes: full-length IgG; also called Ab 18
# B4: ADI-14368 (antibody, V domains shown)
# VH: EVQLVESGGGLVKPGGSLRLSCAASGFTFINAWMSWVRQAPGKGLEWVGRIKSKADGGTTDDAAPVKGRFTISRDDSKNTLYLQMNSLKIEDTAVYYCATDVLPLYNWNLGWNFDLWGRGTLVTVSS
# VL: SYVLTQPPSVSVAPGKTARITCGGNNIADKSVHWYQQKPGQAPVLVMYYDTDRPSGIPERFSGFNSGNTATLTISRVEAGDEADYYCQVWDSSSDHVVFGGGTKVTVL
# notes: full-length IgG; also called Ab 36
# B5: ADI-14341 (antibody, V domains shown)
# VH: QVQLVQSGGGLVQPGGSLRLSCAGSGFTFSDYEMNWVRQAPGKGLEWLSYISSSGSIIYYADSVKGRFTISRDNAKNSLYLQMNSLRAEDTGLYYCARANHRHYYGMDVWGQGTTVTVSS
# VL: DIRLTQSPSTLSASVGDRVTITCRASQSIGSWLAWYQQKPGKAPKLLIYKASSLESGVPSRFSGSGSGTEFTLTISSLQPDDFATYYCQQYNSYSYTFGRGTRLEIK
# notes: full-length IgG; also called Ab 9
# B6: ADI-14338 (antibody, V domains shown)
# VH: EVQLVESGGGVVQPGRPLRLSCAASGFTFSTYDLYWVRQAPGKGLDWVAIISPDGNKKYYADSVKGRFTISRDNSKNTLFLHMNSLRAEDTAVYYCARDYGNYFGSGSYYRYFDLWGRGTLVTVSS
# VL: DIQLTQSPSSLSASVGDRVTITCRASQSISSHLNWYQQKPGKAPKLLIYASSSLQSGVPSRFSGSGSGTDFTLTISGLQPEDFATYYCQQSYSTPFTFGPGTKVEIK
# notes: full-length IgG; also called Ab 6
# B7: ADI-14355 (antibody, V domains shown)
# VH: EVQLVESGPTLVKPTQTLTLTCTFSGFSLSTSGVGVGWIRQPPGKALEWLAVIYWDDDKTYSPSLKSRLTITKDTSKNQVVLTMTNMNPVDTATYYCARCPAPVYSYGVDVWGQGTTVTVSS
# VL: QSALTQPASVSGSPGQSITISCTATSSDFGGYDYVSWYQQHPGEAPKLMISDVTNRPSGVSNRFSGSKSGNTASLTISGLQAEDEADYYCSSYTSYTTPYVFGTGTKLTVL
# notes: full-length IgG; also called Ab 23
# B8: ADI-25547 (antibody, V domains shown)
# VH: EVQLLESGGGLIQPGGSLRLSCAASGFTVSSNYMSWVRQAPGKGLEWVSVIYSGGSTYYADSVKGRFTISRDNSKNTLYLQMNSLRAEDTAVYYCARGGIADAFDIWGQGTMVTVSS
# VL: ETTLTQSPSSVSASVGDRVTITCRASQGISSWLAWYQQKPGKAPKLLIYAASSLQSGVPSRFSGSGSGTDFTLTISSLQPEDFATYYCQQANSFPRTFGQGTKLEIK
# notes: full-length IgG
# B9: ADI-14358 (antibody, V domains shown)
# VH: QVQLVQSGGGLVKPGGSLRLSCVASGFTFSDYYMTWIRQAPGKGLEWVSYISGSSAYTIYADSVKGRFTISRDNAKNSLYLQMNGLRAEDTAVYYCARVSWVRSLDSWGQGTLVTVSS
# VL: QSALTQPASVSGSPGQSITISCTGSTSDVGLYNYVSWYQLHPGKAPKLIIYDVRHRPSGVSDRFSASKSGNTASLTISGLQAEDEADYYCCSYTSSSTYVFGSGTQLTVL
# notes: full-length IgG; also called Ab 26
# B10: ADI-14354 (antibody, V domains shown)
# VH: QVQLVQSGAEVKKPGSSAKVSCKASGGTFSSYTISWVRQAPGQGLEWMGRIIPFLGIANYAQKFQGRVTFTADKSTSTVYMDLSRLRSEDTALYYCAREPMYYGGDSYAFDVWGQGTTVTVSS
# VL: QSVLTQPASMSGSPGHSITISCTGTSSDVGAYNYVSWYQQHPGKAPKLMIYDVSNRPSGVSSRFSGSKSGNTASLTISGLQPEDEADYYCSSFTTSSTRVFGTGTKLTVL
# notes: full-length IgG; also called Ab 22
# B11: ADI-14339 (antibody, V domains shown)
# VH: QVQLVESGGGVLQPGRSLRLPCEASGFTFNKYAMHWVRQAPGKGLEWVAAVSYDGGNKFYAESVKGRFTISRDNSKNTLYLQMNSLKPEDTAVYYCARDRWELLHGLDYWGLGTLVTVSS
# VL: SYELTQPPSVSVSPGQTARITCSGEALAKQYAYWYQQKPGQAPVLVIYKDNERPSGISERFSGSSSGTTVTLTISGVQAEDEADYYCQSADSSGTYVFGTGTKVTVL
# notes: full-length IgG; also called Ab 7
# B12: ADI-14361 (antibody, V domains shown)
# VH: EVQLLESGGGFVQPGGSLRLSCAASGFTFSSYAVNWVRQAPGKGLEWVSLISGSGRTDYTDSVKGRFTISRDNAKNTLFLQMNSLRVEDTAVYYCAKSWGSSGYGYLDYWGQGTLVTVSS
# VL: QSGLTQPPSVSGAPGQRVTISCTGSSSNIGPGTDVHWYQHFPGTAPKLLIFGNSNRPSGVPDRFSGSKSGTSASLAITGLQAEDEAYYYCQSYDRTLSASVFGGGTKLTVL
# notes: full-length IgG; also called Ab 29
# B13: ADI-14371 (antibody, V domains shown)
# VH: EVQLVESGGGLVQPGGSLRLSCAASGFTFSNYAMTWVRQAPGKGLEWLSSISGSGGSTYYADSVKGRFTISRDNSRNTLYVQMNSLRVEDTAFYYCAKAFYEYGAGSPGDYWGQGTLVTVSS
# VL: DIQLTQSPSSLSASVGDRVTITCRASQSIGTNLNWYQQKPGKAPKFLIYAASSLQRGVPSRFSGSGSGSEFTLTISSLQPEDFATYYCQQSYSTLPITFGQGTKLEIK
# notes: full-length IgG; also called Ab 39
# B14: ADI-14383 (antibody, V domains shown)
# VH: QITLKESGPTLVKPTQTLTLTCTFSGFSLSTSGVGVGWIRQPPGKALEWLALIYWDEDKRYSPSLKTRLTITKDTSRNQVKLTMTNMDPVDTATYYCAHQYYDILTGYPSPGAFDIWGQGTTVTVSS
# VL: QPVLTQPASVSGSPGQSITISCTGTSSDVVSYNLVSWFQQHPGKAPKLMIYEVTRRPSGVSNRFSGSKSGNTASLTISGLQAEDEADYYCCAYTGTPVVFGGGTKLTVL
# notes: full-length IgG; also called Ab 51
# B15: ADI-25497 (antibody, V domains shown)
# VH: EVQLLESGGGLVQPGGSLRLSCAASGFTFSSYWMSWVRQAPGKGLEWVANIKQDGSEKYYVDSVKGRFTISRDNAKNSLYLQMNSLRAEDTAVYYCARDGLLQYDFWSGYYDYWGQGTLVTVSS
# VL: EIVLTQSPSSLSASVGDRVTITCRASQGISSWLAWYQQKPEKAPKSLIYAASSLQSGVPSRFSGSGSGTDFTLTISSLQPEDFATYYCQQYNSYPFTFGPGTKVDIK
# notes: full-length IgG
# B16: ADI-14360 (antibody, V domains shown)
# VH: QVQLVQSGAEVKKPGASVKVSCKASGYTFTTYSMHWVRQAPGQRLEWMGWINAGNGNTKYSQKFQGRVTITRDTSASTAYMELSSLRSEDTAVYYCARDGVGGAYYYGEMDVWGQGTTVTVSS
# VL: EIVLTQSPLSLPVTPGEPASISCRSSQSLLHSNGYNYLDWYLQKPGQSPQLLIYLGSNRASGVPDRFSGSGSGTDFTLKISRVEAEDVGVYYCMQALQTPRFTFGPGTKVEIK
# notes: full-length IgG; also called Ab 28
# B17: ADI-14352 (antibody, V domains shown)
# VH: EVQLLETGPGLVKPSQTLSLICAVSGGSISSGGYSWSWIRQPPGKGLEWVGYISYSGSTYYNPSLKSRVTISVDTSKNQFSLKLNSVTAADTAVYFCARVDGIYSSGMRFDYWGQGTLVTVSS
# VL: DIQLTQSPGTLSLSPGERATLSCRASQSVSSYYLAWYQQKPGQAPRLLIYGTSSRATGIPDRFSGSGSGTDFTLTISRLEPEDFAVYYCQQYGRSPLFGQGTRLEIK
# notes: full-length IgG; also called Ab 20
# B18: ADI-14351 (antibody, V domains shown)
# VH: EVQLLESGGGLVQPGGSLRLSCSASGFTFSTYWMHWVRQAPGKGLVWVSRINGDGNDRNYADSVKGRFTISRDNAKNTVYLQMNSLRAEDTAVYYCARGGATGDFYFGMDVWGQGTTVTVSS
# VL: SYELTQPPSVSVAPGKTAKITCGGNNIGTKSVHWYQQKPGQAPVLVIYYDTDRPSGIPERFSGSNSGNTATLTISRVEAGDEADYYCQVWDSSNSDHVGVFGGGTQLTVL
# notes: full-length IgG; also called Ab 19
# B19: ADI-14375 (antibody, V domains shown)
# VH: EVQLVESGGGLVQPGGSLRLSCAVSGFTFSNYAVSWVRQAPGKGLEWVSGISGSGGTTYYVDSVKGRFTVSRDNSKNTLFLQLNSLKAEDTAVYYCAKDWGYSGGRPYFDYWGQGTLVTVSS
# VL: QSVLTQPPSVSGAPGQRVTISCTASSSNIGPIYDVHWYQQLPGTGPKLLIYGNNNRPSGVPDRFSGSKSGTSASLAITGLQAEDEADYYCQSYDTSLSVVFGGGTKLTVL
# notes: full-length IgG; also called Ab 43
# Target: RSV F on RSV subtype A virus (mKate-RSV A2) (respiratory syncytial virus A2, UniProt P03420 26-574)
# Experiment: cell-based or functional assay
row,Binder,Neut IC50 subtype A [µg/mL]
1,B1,1.49

# Target: RSV F on RSV subtype B virus (mKate-RSV B 18537) (respiratory syncytial virus B 18537, UniProt P13843 26-574)
# Experiment: cell-based or functional assay
row,Binder,Neut IC50 subtype B [µg/mL]
1,B1,2.24
2,B2,6.25
3,B3,4.82
4,B4,1.1
5,B5,17.5
6,B6,10.2
7,B7,4.72

# Target: T1, RSV prefusion F (preF), subtype B (respiratory syncytial virus subtype B)
# T1 construct: also called Prefusion subtype B
# Experiment: BLI, IgG
row,Binder,Kd [nM]
1,B1,1.89
2,B8,20.3
3,B2,0.383
4,B3,0.574
5,B9,60.3
6,B4,1.21
7,B10,25.3
8,B11,1.77
9,B12,52.8
10,B13,8.43
11,B14,1.75
12,B15,14.1
13,B6,7.04
14,B16,26.8
15,B17,5.54
16,B7,1.25
17,B18,0.789
18,B19,3.21

# Target: T2, RSV postfusion F (postF), subtype B (respiratory syncytial virus subtype B)
# T2 construct: also called Postfusion subtype B
# Experiment: BLI, IgG
row,Binder,Kd [nM]
1,B1,0.555
2,B8,23.1
3,B2,0.119
4,B3,0.148
5,B9,27.5
6,B4,17.7
7,B10,6.63
8,B11,0.376
9,B5,0.612
10,B12,0.293
11,B13,1.07
12,B14,0.251
13,B15,14.8
14,B6,3.14
15,B16,9.03
16,B17,0.383
17,B7,0.37
18,B18,0.215
19,B19,3.31

# Target: T3, RSV postfusion F (postF), subtype A (respiratory syncytial virus subtype A, UniProt P03420 26-513)
# T3 construct: also called Postfusion subtype A; F deltaFP
# Experiment: BLI, IgG
row,Binder,Kd [nM]
1,B1,1.71
2,B8,21.5
3,B2,0.129
4,B3,0.264
5,B9,0.656
6,B4,24.5
7,B10,1.04
8,B11,0.439
9,B5,0.713
10,B12,0.437
11,B13,1.23
12,B14,0.434
13,B15,18.4
14,B6,5.98
15,B16,5.88
16,B17,0.448
17,B7,0.48
18,B18,0.361
19,B19,0.477
